Substrate in this data set: Cc1cc(Nc2nc(N[C@H](C)c3ncc(F)cn3)ncc2Cl)n[nH]1

Description: Inhibition of JAK2 using Km ATP concentration

B1: Tyrosine-protein kinase JAK2 (Homo sapiens), O60674 (protein)
chain: MGMACLTMTEMEGTSTSSIYQNGDISGNANSMKQIDPVLQVYLYHSLGKSEADYLTFPSGEYVAEEICIAASKACGITPVYHNMFALMSETERIWYPPNHVFHIDESTRHNVLYRIRFYFPRWYCSGSNRAYRHGISRGAEAPLLDDFVMSYLFAQWRHDFVHGWIKVPVTHETQEECLGMAVLDMMRIAKENDQTPLAIYNSISYKTFLPKCIRAKIQDYHILTRKRIRYRFRRFIQQFSQCKATARNLKLKYLINLETLQSAFYTEKFEVKEPGSGPSGEEIFATIIITGNGGIQWSRGKHKESETLTEQDLQLYCDFPNIIDVSIKQANQEGSNESRVVTIHKQDGKNLEIELSSLREALSFVSLIDGYYRLTADAHHYLCKEVAPPAVLENIQSNCHGPISMDFAISKLKKAGNQTGLYVLRCSPKDFNKYFLTFAVERENVIEYKHCLITKNENEEYNLSGTKKNFSSLKDLLNCYQMETVRSDNIIFQFTKCCPPKPKDKSNLLVFRTNGVSDVPTSPTLQRPTHMNQMVFHKIRNEDLIFNESLGQGTFTKIFKGVRREVGDYGQLHETEVLLKVLDKAHRNYSESFFEAASMMSKLSHKHLVLNYGVCVCGDENILVQEFVKFGSLDTYLKKNKNCINILWKLEVAKQLAWAMHFLEENTLIHGNVCAKNILLIREEDRKTGNPPFIKLSDPGISITVLPKDILQERIPWVPPECIENPKNLNLATDKWSFGTTLWEICSGGDKPLSALDSQRKLQFYEDRHQLPAPKWAELANLINNCMDYEPDFRPSFRAIIRDLNSLFTPDYELLTENDMLPNMRIGALGFSGAFEDRDPTQFEERHLKFLQQLGKGNFGSVEMCRYDPLQDNTGEVVAVKKLQHSTEEHLRDFEREIEILKSLQHDNIVKYKGVCYSAGRRNLKLIMEYLPYGSLRDYLQKHKERIDHIKLLQYTSQICKGMEYLGTKRYIHRDLATRNILVENENRVKIGDFGLTKVLPQDKEYYKVKEPGESPIFWYAPESLTESKFSVASDVWSFGVVLYELFTYIEKSKSPPAEFMRMIGNDKQGQMIVFHLIELLKNNGRLPRPDGCPDEIYMIMTECWNNNVNQRPSFRDLALRVDQIRDNMAG
With B1, the Km amounted to 0.031 µM.

What is called Km is the substrate concentration at which the rate is half of its maximum.

For the origin of these results see ChEMBL document CHEMBL1649076, “Discovery of 5-chloro-N2-[(1S)-1-(5-fluoropyrimidin-2-yl)ethyl]-N4-(5-methyl-1H-pyrazol-3-yl)pyrimidine-2,4-diamine (AZD1480) as a novel inhibitor of the Jak/Stat pathway” (J Med Chem, 2011).
